Test results taken from patent US20240360242A1 (KISOJI BIOTECHNOLOGY, published 2024).
Positions count from the first letter of the chain named.

Experiments:
[1] = target: T1, recombinant human IGFBP-1 (human, UniProt P08833 26-259); assay: ELISA
T1 construct: also called rhIGFB-1
T1 sequence (looked up): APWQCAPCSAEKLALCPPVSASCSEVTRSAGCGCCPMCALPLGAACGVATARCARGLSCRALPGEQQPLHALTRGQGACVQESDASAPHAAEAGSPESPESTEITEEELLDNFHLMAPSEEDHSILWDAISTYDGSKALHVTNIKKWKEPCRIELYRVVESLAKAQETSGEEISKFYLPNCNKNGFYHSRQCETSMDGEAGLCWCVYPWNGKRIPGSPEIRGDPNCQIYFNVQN

[2] = target: T2, recombinant human EpCAM (human, UniProt P16422 24-265); assay: ELISA
T2 construct: also called rhEpCAM
T2 sequence (looked up): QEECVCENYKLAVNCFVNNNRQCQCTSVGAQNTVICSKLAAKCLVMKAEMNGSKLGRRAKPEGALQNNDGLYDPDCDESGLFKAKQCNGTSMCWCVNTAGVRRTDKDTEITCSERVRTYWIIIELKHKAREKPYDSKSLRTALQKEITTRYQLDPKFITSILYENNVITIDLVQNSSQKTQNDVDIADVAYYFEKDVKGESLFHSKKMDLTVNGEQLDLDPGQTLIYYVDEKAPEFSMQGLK

[3] = target: T3, human TROP2 on cells (human, UniProt P09758 27-323); assay: flow cytometry, 100 nM antibody, transiently transfected HEK cells, APC anti-human Fc
T3 construct: Full human TROP2, either transiently transfected into HEK or CHO cells or endogenous on cancer cell lines; also called HEK-TROP2; CHO-TROP2
T3 sequence: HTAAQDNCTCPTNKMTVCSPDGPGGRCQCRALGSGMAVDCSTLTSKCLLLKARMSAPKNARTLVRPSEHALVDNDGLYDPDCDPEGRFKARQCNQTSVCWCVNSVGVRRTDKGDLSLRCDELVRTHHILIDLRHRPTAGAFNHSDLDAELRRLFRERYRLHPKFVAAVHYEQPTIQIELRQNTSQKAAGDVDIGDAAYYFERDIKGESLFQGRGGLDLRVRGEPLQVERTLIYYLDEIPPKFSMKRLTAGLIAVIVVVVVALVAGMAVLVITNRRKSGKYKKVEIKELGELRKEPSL
Summary of the method: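 HEK parental cells transiently transfected (lipofectamine) with human TROP2 truncation mutants, harvested 24 h later and Fc-blocked 10 min at RT. Anti-TROP2 sdAbs at 100 nM bound 30 min on ice, then detected with APC anti-human Fc (30 min) and 7-AAD added for viability.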

[4] = target: T4, recombinant human TROP2 extracellular domain (aa 1-274) comprising His tag (human, UniProt P09758 27-274); assay: competitive ELISA on coated recombinant human TROP2, competitor KD004-His, anti-His-HRP
T4 construct: Used here for all assays on recombinant human TROP2 (ELISA, immunoblot, SPR, crystal), although only some of them name the catalogue number; also called human recombinant TROP2; recombinant human TROP2 protein; not shown: His tag
T4 sequence: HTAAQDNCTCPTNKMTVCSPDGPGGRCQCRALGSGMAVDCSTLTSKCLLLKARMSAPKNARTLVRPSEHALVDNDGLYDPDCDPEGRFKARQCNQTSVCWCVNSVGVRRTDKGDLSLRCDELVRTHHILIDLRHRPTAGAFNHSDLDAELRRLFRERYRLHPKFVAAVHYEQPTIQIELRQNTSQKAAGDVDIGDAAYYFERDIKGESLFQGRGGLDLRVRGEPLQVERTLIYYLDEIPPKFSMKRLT
Method: The epitope characterization was assessed by competitive ELISA (FIG. 8 and FIG. 9). Microplates were coated with human recombinant TROP2 at 4° C. overnight. After washing, plates were blocked with blocking buffer (PBS+2% BSA), for 1 hour at room temperature. Meanwhile, the dilution for anti-TROP2 VHH sdAbs was prepared with blocking buffer making two different dilutions depending on the tag. For sdAbs with His tag, the antibody was diluted to 28571.4 pM. For sdAbs without tag, antibodies were serially diluted from 2857142.9 pM to 0.29 pM (8 dilutions, 10×). After that, equal volume of the his-tagged sdAbs and serial diluted non-tagged sdAbs were mixed, to make the final concentration of his-tagged sdAbs 14285.7 pM and non-tagged sdAbs from 1428571.4 pM to 0.14 pM. After washing two times, the mixed antibody contents were added into the wells and the plates were incubated for 2 hours at room temperature. The HRP-conjugated anti-6× His was diluted to 1:5000 and added to the wells after washing three times. Any unbound conjugate was removed by washing after 1 hour incubation at room temperature, and the colorimetric reaction was performed by adding the same volume of Supersignal ELISA Pico Luminol/Enhancer and SuperSignal ELISA Pico Stable Peroxide Solution and detected on SpectraMax i3x Microplate Reader. Positive and negative controls were included in each plate.

[5] = target: T4, recombinant human TROP2 extracellular …; assay: ELISA, coated rh TROP2, normalized to KD005
[6] = target: T4, recombinant human TROP2 extracellular …; assay: ELISA, coated rh TROP2
Method: Human TROP2 recombinant proteins were coated on 96-well ELISA plates at the concentration of 1 μg/mL. Plates were covered with adhesive plate cover and stored at 4° C. overnight. The next day, plates were washed 3× with washing buffer (PBS with 0.1% Tween™ 20). Plates were blocked with 2% fat-free BSA in washing buffer for 1 hour at 37° C. During the incubation time, the TROP2 reference antibodies, as well as the humanized variants, were diluted in the blocking buffer to the indicated concentrations. […] After blocking, the blocking buffer was removed from the wells and 100 μL of anti-TROP2 sdAbs dilutions were transferred to the corresponding wells. Plates were covered with adhesive plates cover and incubated at 37° C. for 1 hour. During the primary antibody incubation, the secondary antibody (goat anti-human IgG, HRP conjugated) was diluted 1 in 5000 with the blocking buffer. Plates were washed 3× with blocking buffer, followed by secondary antibody incubation for another 1 hour at 37° C. After the secondary antibody incubation, plates were washed 3× with washing buffer and added with 100 μL of ELISA chemiluminescent substrate (Thermofisher). The luminescence signal was detected by SpectraMax i3x at […].

B1: KD007 (antibody, human IgG1, V domains shown)
VH: QVQLQESGGGLVQPGGSLRLSCAASGFAFSFYAMAWYRQAPGKQRDMVATITAYGNTNYADSVKGRFTTSRDNAKNTVYLQMNSLKPEDTAVYVCNANLPSASHNYWGQGTQVTVSS
notes: also called anti-TROP2 sdAb KD007
Question: Does B1 bind [1]?
Answer: no binding

Question: Does B1 bind [2]?
Answer: no binding

Question: Does B1 bind [3]?
Answer: binds

B2: KD004 (antibody, human IgG1, V domains shown)
VH: QVQLQESGGGLVQPGRSLRLSCAASGFTFSGSDMSWVRQAPGKGPEWVSYITGSGTTYYPDSVKGRFTTSRDNAKNMLYLQMNSLKPDDTALYRCAKARLTDSHYVEDAWGQGTQVTVSS
notes: also called anti-TROP2 sdAb KD004
Question: B2 was tested. Which “IC50 (read off the curve)” value [4] did it give?
Answer: ~60 nM

B3: KD005 (antibody, human IgG1, V domains shown)
VH: B2 VH with Q13E, P14A, R16G, G53S, S54G, T69I, M77T, A98S
notes: also called anti-TROP2 sdAb KD005
Question: For B3, which “EC50 relative to KD005” value [5] is on record?
Answer: 1 ratio to KD005

B4: KD002 (antibody, human IgG1, V domains shown)
VH: QVQLQESGGGMVQVGGSLRLSCAASGFPFSSADMSWVRQAPGKGPEWVSYINADGSKTYYPDSVKGRFTISRDNAKNTLYLLMNNLKPEDTALYRCARAKLTDTHYVEDYWGQGTQVTVSS
notes: also called anti-TROP2 sdAb KD002
Question: For B4, which EC50 [6] is on record?
Answer: 0.07 nM
